Experimental data: patent US6620616B1, “Nucleic acids encoding nitric oxide synthase variants” (The Cleveland Clinic Foundation, priority 2000, dated 2003)

Experiments:
cytochrome c = experiment: Cytochrome c reduction; format: biochemical; details: 25° C.
Protocol: (§1) The initial rate of NO synthesis, NADPH oxidation, or cytochrome c reduction by wild type and mutants was quantitated at 25° C. as described in Abu-Soud et al. (1997) J. Biol. Chem 272: 10769-10772. H2O2-dependent nNOS oxidation of NOHA to nitrite was assayed in 96-well microplates at 30° C. The assay volume was 100 μl and contained 40 mM EPPS, pH 7.6, 250 nM nNOS or mutants, 1 mM NOHA, 1 mM DTT, 25 units/ml superoxide dismutase 0.5 mM EDTA, and 4 μM H4B. Reactions were initiated by adding 30 mM H2O2 and stopped after 10 min by adding 1300 units of catalase. Nitrite was detected at 550 nm using the Griess reagent (100 μL) and quantitated based on nitrite standards.

NADPH oxidation = format: biochemical; details: 25° C.
Protocol: as §1

[1] = NO synthesis versus O2 concentration (oxyhemoglobin assay); format: biochemical; details: O2 levels ranging from 0 to 230 mm O2, 25° C., FIG. 3
Protocol: The reaction was started by adding 0.2 mM NADPH. Rates of synthesis were quantified as follows: the initial rate of NO synthesis by nNOS was quantitated at 25° C. using oxyhemoglobin assay for NO, according to the method found in Abu-Soud and Stuehr (1993) Proc. Natl. Acad. Sci. U.S.A. 90:10769-10772. The NO mediated conversion of oxyhemoglobin to met-hemoglobin was monitored over time as an absorbence increase at 401 nm, and quantitated using the extinction coefficient of 38 mM^−1 cm^−1. Quantitation was done with a Hitachi U2000 spectrophotometer. O2 concentration measurement in each reaction was calculated based on the O2 concentration of a saturated buffer at 25° C. (approximately 0.26 mM) and the mixing ratios of this solution with an anaerobic buffer that contained no oxygen. […] The difference in the enzymatic activity of the NOS variant and wild-type NOS is most pronounced at low concentrations of O2, i.e., concentrations ranging from 0 to 50 μM.

[2] = NO synthesis from Arg (initial rate); format: biochemical; details: for NO synthesis from Arg, turn over number (kcat): 25° C.
Protocol: as §1

[3] = Ferrous-nitrosyl complex formation during aerobic steady state; format: biochemical; details: air-saturated buffer, 15° C., 1 mM Arg, 20 μM H4B
Protocol: NO down-regulates the rate of NO synthesis and associated electron flux by binding to the nNOS heme. We therefore investigated if NO binding to the heme was altered by the Trp-409 mutations during aerobic steady-state catalysis. In this study, 0.6 μM nNOS was diluted is an air-saturated 40 mM EPPS buffer, pH 7.6, containing 0.9 mM EDTA, 3 μM CaM, 200 μM DTT, 20 μM H4B, 80 μM NADPH, and 1 mM Arg; final volume 1 ml. Reactions were started by adding 1.2 mM Ca^2+ and monitored by wavelength scanning at 15° C.

[4] = NO synthesis from NOHA (initial rate); format: biochemical; details: 25° C.
Protocol: as §1

[5] = Ferric- and ferrous-NO complex formation under anaerobic conditions; format: binding; details: Arg and H4B present
Protocol: Given the above, we investigated if either mutant could form stable ferric or ferrous NO complexes with authentic NO under an anaerobic atmosphere in the presence of Arg and H4B, as occurs for wild-type nNOS. Concentrated small amounts of nNOS or mutants were placed into an anaerobic cuvette with 4 μM H4B, 1 mM Arg, and 200 μM DTT and made anaerobic by repeated cycles of evacuation and equilibration with deoxygenated argon gas. A 40 mM EPPS buffer containing 4 μM H4B, 1 mM Arg, and 200 μM DTT was separately made anaerobic, and 1 ml of this solution was transferred to the cuvette. NO gas was added to the head space and dissolved by mixing. Dithionite solution was then added in some cases.

[6] = CaM-bound, +H4B, NAME (nitro-L-arginine methyl ester)

Row | Substance | Cytochrome c reduction, turn over number (kcat) (cytochrome c; +CaM) | Cytochrome c reduction, turn over number (kcat) (cytochrome c; −CaM) | NADPH oxidation, turn over number (kcat) (NADPH oxidation; +CaM) | NADPH oxidation, turn over number (kcat) (NADPH oxidation; CaM-bound, +H4B, Arg) | NADPH oxidation, turn over number (kcat) (NADPH oxidation; [6]) | NADPH oxidation, turn over number (kcat) (NADPH oxidation; CaM-bound, +H4B, agmatine) | NADPH oxidation, turn over number (kcat) (NADPH oxidation; CaM-bound, +H4B, −Arg) | NADPH oxidation, turn over number (kcat) (NADPH oxidation; CaM-bound, −H4B, −Arg) | NADPH oxidation, turn over number (kcat) (NADPH oxidation; −CaM) | rate of NO production relative to wild-type nNOS [1] | faster rate of NO synthesis from Arg compared with the wild type ([2]; +CaM) [fold] | NO synthesis from Arg, turn over number (kcat) ([2]; +CaM) | NO synthesis from Arg, turn over number (kcat) ([2]; −CaM) | 6-coordinate ferrous-NO complex accumulation (absorbance buildup at 436 nm) during steady-state NO synthesis [3] | NO synthesis from NOHA, turn over number (kcat) ([4]; +CaM) | NO synthesis from NOHA, turn over number (kcat) ([4]; −CaM) | ferric NO complex formation with authentic NO [5] | ferrous-NO complex after dithionite reduction ([5]; dithionite added)
1 | W409Y: rat nNOS variant with tyrosine (Y) at position 409 in place of tryptophan, His6-tagged, expressed in E. coli | 5546 mol of product formed/mol of protein/min | 280 mol of product formed/mol of protein/min | 237 mol of product formed/mol of protein/min | 250 + 20 min^−1 | 25 + 4 min^−1 | 170 + 10 min^−1 | 124 + 4 min^−1 | 74 + 8 min^−1 | 11.2 mol of product formed/mol of protein/min | faster than the wild-type nNOS protein | 1.8 | 155 mol of product formed/mol of protein/min | 0 mol of product formed/mol of protein/min | no | 180 mol of product formed/mol of protein/min | 0 mol of product formed/mol of protein/min | – | –
2 | nNOS: wild-type rat neuronal nitric oxide synthase, His6-tagged, expressed in E. coli; non-variant comparator [reference compound] | 7000 mol of product formed/mol of protein/min | 500 mol of product formed/mol of protein/min | 170 mol of product formed/mol of protein/min | 160 + 12 min^−1 | 22 + 4 min^−1 | 250 + 20 min^−1 | 500 + 25 min^−1 | 290 + 25 min^−1 | 11.2 mol of product formed/mol of protein/min | – | – | 96 mol of product formed/mol of protein/min | 0 mol of product formed/mol of protein/min | a significant percentage accumulated as the 6-coordinate ferrous-NO complex | 115 mol of product formed/mol of protein/min | 0 mol of product formed/mol of protein/min | formed stable 6-coordinate ferric NO complexes | stable 6-coordinate ferrous-NO complex
3 | W409F: rat nNOS variant with phenylalanine (F) at position 409 in place of tryptophan, His6-tagged, expressed in E. coli | 5000 mol of product formed/mol of protein/min | 230 mol of product formed/mol of protein/min | 445 mol of product formed/mol of protein/min | 480 + 20 min^−1 | 16 + 3 min^−1 | 180 + 10 min^−1 | 189 + 15 min^−1 | 105 + 10 min^−1 | 5.6 mol of product formed/mol of protein/min | faster than the wild-type nNOS protein | 3 | 286 mol of product formed/mol of protein/min | 0 mol of product formed/mol of protein/min | small | 453 mol of product formed/mol of protein/min | 0 mol of product formed/mol of protein/min | – | –
